The values below come from patent US20140341881A1 (DERMADIS, published 2014).

Substitutions are numbered along the chain they refer to.

Test [1] addresses T1, human kallikrein 2 (hK2) (human, UniProt P20151 25-261). The test is described as follows: cell-based or functional assay.
The target in test [2] is prostate specific antigen (PSA, hK3) (human, UniProt P07288 25-261). Nature of the test: cell-based or functional assay.
For a further test, the target named is human kallikrein hK1 (human, UniProt P06870 25-262). Nature of the test: cell-based or functional assay.
Test [3] has as its target T2, urokinase plasminogen activator (uPA) (UniProt P00749 21-431, limits assumed). The test is described as follows: cell-based or functional assay.
The target of test [4] is T1, human kallikrein 2 (hK2). Nature of the test: progress curve, pseudo-first order, fluorogenic substrate. As to the method:
Under these conditions, a fixed amount of enzyme (2 nM) was mixed with different concentrations of inhibitor (0-800 nM) and an excess of substrate (10 μM). Each reaction was made in reaction buffer (50 mM Tris pH 7.5, 150 mM NaCl, 0,05% Triton X-100, 0.01% BSA) at 25° C. for 45 min and the rate of product formation was measured using a FLₓ800 fluorescence 96-well microplate reader (Biotek, USA). In this model, inhibition is considered to be irreversible over the course of reaction and the progress of enzyme activity is expressed by product formation (P), beginning at a rate (vz) and is inhibited over time (t) at a first-order rate (kobs), rate constant that is dependent only on inhibitor concentration.

For test [5], the target named is T1, human kallikrein 2 (hK2). The test is described as follows: residual enzyme activity against [I]o/[E]o, fluorogenic substrate. The protocol:
The stoichiometry of inhibition (SI) values were determined for the inhibition of rACTWT and its variants with hK2 and different other enzymes. An initial test was made with a molar excess of rACT (100 fold) over hK2, PSA, hK1, chymotrypsin (Chtr), plasma kallikrein (PK), urokinase (uPA) and human neutrophile elastase (HNE) enzymes. The reaction was carried out for 30 min at 25° C. (90 min at 37° C. for PSA) in reaction buffer (50 mM Tris pH 7.5, 150 mM NaCl, 0,05% Triton X-100, 0.01% BSA) and residual enzyme activity was measured by adding fluorescent substrates (Z-Phe-Arg-AMC for hK1, hK2 and PK, Suc-Ala-Ala-Pro-Phe-AMC for Chtr, Z-Gly-Gly-Arg-AMC for uPA, MeOSuc-Ala-Ala-Pro-Val-AMC for HNE, and CFP-TFRSA-YFP (TFRSA SEQ ID NO:137) for PSA). Activity of enzyme in presence of inhibitors was compared to uninhibited reaction. For reactions where an inhibition was observed, SI was determined by incubating different concentrations of recombinant serpins. Using linear regression analysis of fractional activity (velocity of inhibited enzyme reaction/velocity of uninhibited enzyme reaction) versus the molar ratio of the inhibitor to enzyme ([Iₒ]/[Eₒ]), the stoichiometry of inhibition, corresponding to the abscissa intercept, was obtained.

Test [6] has as its target T1, human kallikrein 2 (hK2). Nature of the test: cell-based or functional assay. This is another data set of the same source.
In another test the target is human kallikrein 4 (hK4) (human, UniProt Q9Y5K2 31-254, limits assumed). Nature of the test: cell-based or functional assay.
Sequence of human kallikrein 4 (hK4) (Q9Y5K2 31-254 limits assumed): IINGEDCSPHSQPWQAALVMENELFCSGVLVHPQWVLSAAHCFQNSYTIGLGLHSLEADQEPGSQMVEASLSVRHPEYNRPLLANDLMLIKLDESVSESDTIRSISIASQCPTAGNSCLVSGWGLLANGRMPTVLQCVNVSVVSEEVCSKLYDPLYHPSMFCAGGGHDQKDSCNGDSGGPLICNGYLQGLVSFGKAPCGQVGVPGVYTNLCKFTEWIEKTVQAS
The target of another test is T3, human kallikrein 5 (hK5) (human, UniProt Q9Y337 67-293, limits assumed).
T3 sequence (looked up): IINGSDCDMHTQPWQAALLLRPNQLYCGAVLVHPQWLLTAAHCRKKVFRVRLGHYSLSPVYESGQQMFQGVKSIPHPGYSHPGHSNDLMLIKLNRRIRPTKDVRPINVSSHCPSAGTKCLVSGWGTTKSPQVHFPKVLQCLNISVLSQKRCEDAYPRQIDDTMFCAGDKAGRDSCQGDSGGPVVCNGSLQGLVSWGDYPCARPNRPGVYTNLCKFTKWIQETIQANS
Nature of the test: cell-based or functional assay.

The target of another test is human kallikrein 6 (hK6) (human, UniProt Q92876 22-244). The test is described as follows: cell-based or functional assay.
A further test addresses T4, human kallikrein 8 (hK8) (human, UniProt O60259 33-260).
T4 sequence (looked up): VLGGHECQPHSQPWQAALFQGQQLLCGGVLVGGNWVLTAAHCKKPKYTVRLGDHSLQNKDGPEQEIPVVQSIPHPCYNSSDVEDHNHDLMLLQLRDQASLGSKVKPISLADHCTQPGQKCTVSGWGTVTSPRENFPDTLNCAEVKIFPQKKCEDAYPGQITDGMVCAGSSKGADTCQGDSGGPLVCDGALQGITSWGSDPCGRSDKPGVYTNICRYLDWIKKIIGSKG
The test is described as follows: cell-based or functional assay.

Test [7] deals with human chymotrypsin (Chtr) (human, UniProt P17538 19-263). The test is described as follows: cell-based or functional assay.
Sequence of human chymotrypsin (Chtr) (P17538 19-263): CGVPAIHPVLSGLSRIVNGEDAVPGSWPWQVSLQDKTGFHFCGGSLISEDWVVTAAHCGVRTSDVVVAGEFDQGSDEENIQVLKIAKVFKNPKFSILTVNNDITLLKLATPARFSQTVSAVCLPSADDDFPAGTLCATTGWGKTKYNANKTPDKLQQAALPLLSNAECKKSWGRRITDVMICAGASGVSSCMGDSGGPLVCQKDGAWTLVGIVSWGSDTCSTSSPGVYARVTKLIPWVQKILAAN
Test [8] concerns the target human plasma kallikrein (PK) (human, UniProt P03952 20-638). The test is described as follows: cell-based or functional assay.
Test [9] concerns the target T2, urokinase plasminogen activator (uPA). The test is described as follows: cell-based or functional assay. This is another data set of the same source.
Test [10] concerns the target T5, human neutrophil elastase (HNE) (human, UniProt P08246 30-247, limits assumed).
T5 sequence (looked up): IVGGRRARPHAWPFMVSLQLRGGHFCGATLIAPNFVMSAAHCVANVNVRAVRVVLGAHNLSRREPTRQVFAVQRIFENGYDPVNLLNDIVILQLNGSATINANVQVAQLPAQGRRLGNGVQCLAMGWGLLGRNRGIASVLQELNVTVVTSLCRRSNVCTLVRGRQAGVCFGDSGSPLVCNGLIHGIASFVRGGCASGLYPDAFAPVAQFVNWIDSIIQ
Nature of the test: cell-based or functional assay.

The target in a further test is thrombin. Nature of the test: cell-based or functional assay.
Test [11] has as its target T6, human kallikrein 14 (hK14) (human, UniProt Q9P0G3 25-251, limits assumed).
T6 sequence (looked up): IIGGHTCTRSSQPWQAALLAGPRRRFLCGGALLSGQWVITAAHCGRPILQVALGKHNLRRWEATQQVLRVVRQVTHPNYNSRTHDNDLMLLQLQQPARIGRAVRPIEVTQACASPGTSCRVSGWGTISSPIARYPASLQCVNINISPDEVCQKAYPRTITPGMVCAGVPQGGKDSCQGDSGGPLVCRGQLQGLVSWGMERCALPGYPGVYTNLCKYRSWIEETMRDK
The test is described as follows: cell-based or functional assay.

In test [12] the target is T6, human kallikrein 14 (hK14). Nature of the test: progress curve; * [I0]/[E0] < 5 * SI. As to the method:
The association rate constants for interactions of hK14, with different inhibitors were determined under pseudo-first order conditions using the progress curve method (Morrison and Walsh, 1988). Under these conditions, a fixed amount of enzyme (2 nM) was mixed with different concentrations of inhibitor (0-80 nM) and an excess of substrate (20 μM). Reactions were performed in reaction buffer (50 mM Tris pH 7.5, 150 mM NaCl, 0.05% Triton X-100, 0.01% BSA) at 37° C. for 45 min and the rate of product formation was measured using a FLₓ800 fluorescence 96-well microplate reader (Biotek, USA) Inhibition is considered to be irreversible over the course of reaction and the progression of enzyme activity is expressed as product formation (P), beginning at a rate (vz) and is inhibited over time (t) at a first-order rate (kobs), where the rate constant is only dependent on the inhibitor concentration.

In test [13] the target is T6, human kallikrein 14 (hK14). Nature of the test: residual hK14 activity against [I0]/[E0]. As to the method: SI values of rAAT, rACT, and their variants were determined with hK14 incubating the protease with varying concentrations of inhibitor. After an incubation of 4 hours at 37° C. in reaction buffer (50 mM Tris, pH 7.5, 150 mM NaCl, 0.05% Triton X-100, 0.01% BSA), the residual activity was detected by the addition of fluorescent substrate (Boc-Val-Pro-Arg-AMC). Fluorescence was measured with excitation at 340 nm (±15) and emission at 485 nm (±10) in black 96 well plates using a microplate fluorescence reader FLₓ800 (Bio-Tek Instruments, Inc.). The SI value corresponds to the abscissa intercept of the linear regression analysis of fractional velocity (velocity of inhibited enzyme reaction (vi)/velocity of uninhibited enzyme reaction (v₀)) vs. the molar ratio of the inhibitor to enzyme ([I₀]/[E₀]).

Sequence of human plasma kallikrein (PK) (P03952 20-638 limits assumed): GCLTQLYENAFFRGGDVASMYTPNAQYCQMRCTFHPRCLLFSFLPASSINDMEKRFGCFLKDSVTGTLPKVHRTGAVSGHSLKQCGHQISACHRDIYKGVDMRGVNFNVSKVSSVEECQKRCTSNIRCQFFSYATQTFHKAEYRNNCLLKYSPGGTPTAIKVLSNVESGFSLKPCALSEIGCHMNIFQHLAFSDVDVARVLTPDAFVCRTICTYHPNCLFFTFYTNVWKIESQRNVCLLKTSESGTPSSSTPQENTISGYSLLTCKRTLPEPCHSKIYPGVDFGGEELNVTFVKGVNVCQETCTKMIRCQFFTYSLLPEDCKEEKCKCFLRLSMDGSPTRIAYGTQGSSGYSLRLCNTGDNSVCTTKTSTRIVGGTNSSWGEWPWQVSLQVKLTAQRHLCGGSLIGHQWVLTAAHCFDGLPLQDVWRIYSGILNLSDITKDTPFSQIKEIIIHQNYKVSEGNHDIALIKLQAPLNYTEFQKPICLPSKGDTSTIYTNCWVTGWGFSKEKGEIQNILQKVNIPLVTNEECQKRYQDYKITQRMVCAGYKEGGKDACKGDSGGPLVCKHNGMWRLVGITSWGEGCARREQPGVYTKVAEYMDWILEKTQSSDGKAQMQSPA

B1: rACT5.18 (other)
chain: MRGSHHHHHHSRHPNSPLDEENLTQENQDRGTHVDLGLASANVDFAFSLYKQLVLKAPDKNVIFSPLSISTALAFLSLGAHNTTLTEILKGLKFNLTETSEAEIHQSFQHLLRTLNQSSDELQLSMGNAMFVKEQLSLLDRFTEDAKRLYGSEAFATDFQDSAAAKKLINDYVKNGTRGKITDLIKDLDSQTMMVLVNYIFFKAKWEMPFDPQDTHQSRFYLSKKKWVMVPMMSLHHLTIPYFRDEELSCTVVELKYTGNASALFILPDQDKMEEVEAMLLPETLKRWRDSLEFREIGELYLPKFSISRDYNLNDILLQLGIEEAFTSKADLSGITGARNLAVSQVVHKAVLDVFEEGTEASAATAVKITERVSPVETRTIVRFNRPFLMIIVPTDTQNIFFMSKVTNPKQA
notes: recombinant ACT variant, RSL substrate peptide ERVSP; N-terminal His tag, E. coli TG1; also called MD518
Consider B1, for which the INHIBITION % with human kallikrein 2 (hK2) [1] amounted to 73%; in [2], 0%; in the test with human kallikrein hK1 it was 0%; in test [3], 0%. Further, the kon with human kallikrein 2 (hK2) [4] came out at 595 M⁻¹ s⁻¹. Moreover, the “SI (stoichiometry of inhibition)” value in the test with human kallikrein 2 (hK2) [5] worked out at 139.

B2: ACTG1g (other)
chain: B1 chain with I369G, T370S, E371L, V373G, S374A, P375L
With B2, the “% Inhibition” value in the test with human kallikrein 2 (hK2) [6] turned out to be 0%; with human kallikrein 4 (hK4) it was 0%; in the test with human kallikrein 5 (hK5) it was 10%; in the test with human kallikrein 6 (hK6), 0%; with human kallikrein 8 (hK8), 0%.

B3: ACTE5 (other)
chain: B1 chain with T370N, E371Q, V373S, P375L
In the case of B3, the “% Inhibition” value amounted to 0% with human kallikrein 2 (hK2) [6]; 75% with human kallikrein 4 (hK4); 10% with human kallikrein 5 (hK5); 0% with human kallikrein 6 (hK6); 10% with human kallikrein 8 (hK8).

B4: ACTF11 (other)
chain: B1 chain with I369Q, T370R, E371L, V373D, S374A, P375L
Consider B4, for which the “% Inhibition” value in the test with human kallikrein 2 (hK2) [6] worked out at 25%; in the test with human kallikrein 4 (hK4) it was 45%; with human kallikrein 5 (hK5), 15%; with human kallikrein 6 (hK6), 0%; in the test with human kallikrein 8 (hK8), 0%.

B5: rACT8.3 (other)
chain: B1 chain with T370R, E371G, V373S, S374E, P375L
notes: recombinant ACT variant, RSL substrate peptide RGRSE; N-terminal His tag, E. coli TG1; also called MD83; MD 83
Regarding B5, the INHIBITION % is 100% in the test with human kallikrein 2 (hK2) [1], 0% in test [2], 0% in the test with human kallikrein hK1 and 0% in [3]. Also, in the test with human kallikrein 2 (hK2) [4], the kon is 2440 M⁻¹ s⁻¹. In addition, the “SI (stoichiometry of inhibition)” value with human kallikrein 2 (hK2) [5] is 34.

B6: ACTC11D (other)
chain: B1 chain with E371L, V373Q, S374T, P375N, V376D
notes: also called rACTC11D
On to B6, for which the “% Inhibition” value in test [7] came out at 83%; in [8], 0%; in test [9] it was 0%; in test [10], 0%; in the test with thrombin, 0%; in test [11], 100%. The molecule also came in with a kon in test [12] of 74000 M⁻¹ s⁻¹. For the same molecule, the “SI (stoichiometry of inhibition)” value in test [13] stood at 2.8.

B7: ACTC11g (other)
chain: B1 chain with E371G, V373Q, S374T, P375N
Turning to B7, the “% Inhibition” value with human kallikrein 2 (hK2) [6] was 25%; with human kallikrein 4 (hK4), 0%; with human kallikrein 5 (hK5) it was 5%; with human kallikrein 6 (hK6), 0%; in the test with human kallikrein 8 (hK8) it was 0%. Further, the kon in [12] amounted to 7600 M⁻¹ s⁻¹. Also, the “SI (stoichiometry of inhibition)” value in test [13] amounted to 13.8.

B8: ACTG1 (other)
chain: B1 chain with I369G, T370S, E371L, V373S, S374A, P375L
In the case of B8, the “% Inhibition” value in the test with human kallikrein 2 (hK2) [6] was 15%; with human kallikrein 4 (hK4) it was 0%; with human kallikrein 5 (hK5) it was 50%; with human kallikrein 6 (hK6) it was 20%; with human kallikrein 8 (hK8) it was 0%. This molecule also gave a kon in [12] of 3200 M⁻¹ s⁻¹. For the same molecule, the “SI (stoichiometry of inhibition)” value in [13] amounted to 13.3.

One may read the kon as the rate constant with which the complex forms. The % Inhibition is the change of the read-out against control, counted positive when it falls. A lower % Inhibition goes with a weak effect.
